Measured values as given in patent publication US12312641B2, “Sensitivity marker for antibody-drug conjugate” (priority 2018, dated 2025).

How the values were obtained:
[1] = test system: patient-derived xenograft (PDX) model; assay: Anti-tumor effect (TGI) in patient-derived xenograft models, 10 to 15 days after administration; format: in vivo, nu/nu mice; conditions: for TGI (%): 10 mg/kg tail vein; for Proportion of PDX models showing TGI of 75% or more: TGI at 10 to 15 days
Procedure: Mice: Female nu/nu mice (Envigo) aged 5-8 weeks were acclimatized under SPF conditions for 3 days or more prior to experimental use. Mice were fed with sterile solid feed (Teklad2919, Envigo) and given reverse osmosis membrane-treated water (containing 2 ppm chlorine).
Measurements and Calculation formula: long and short diameters of tumors were measured twice a week with an electronic digital caliper (CD-6PMX, Mitutoyo Corp.) and tumor volume (mm^3) was calculated using the following calculation formula: Tumor volume (mm^3)=0.52×Long diameter (mm)×[Short diameter (mm)]^2
Tumor fragments from each cancer patient were subcutaneously implanted into mice and passaged. The obtained tumors were used to subcutaneously implant tumor fragments, which were cut to approximately 5×5×5 mm^3, into the left abdomen of female nu/nu mice, thereby each patient-derived xenograft (PDX) model was created. Mice were randomly grouped when the mean transplanted tumor volume reached 150 to 300 mm^3 (Day 0). On the same day as grouping, the antibody-drug conjugate (1) was administered into the tail vein at a dose of 10 mg/kg. A formulation buffer was similarly administered at a volume of 10 mL/kg as a negative control.
Data on the amount of gene expression in each PDX model used in Example 4 were obtained by the next-generation RNA sequencing method using RNA extracted from formalin-fixed paraffin-embedded specimens of each tumor. After the obtained data were normalized to a FPKM value, 1 was added to FPKM, and the sum was transformed to a logarithmic (log2) to obtain a log2[FPKM+1] value (Table 6). The log2[FPKM+1] value was used to analyze the relationship between the anti-tumor activity of antibody-drug conjugate (1) in each PDX model (Table 5) and the amount of expression of the hTROP2 gene and the SLFN11 gene.

[2] = test system: relapsed and advanced non-small cell lung cancer; assay: Phase 1 study, dose escalation part, maximum tumor change rate; format: in vivo, human
Procedure: In a dose escalation part of a Phase 1 study for patients with relapsed and advanced non-small cell lung cancer, the antibody-drug conjugate (1) was administered intravenously once every three weeks until unacceptable toxicity or worsening of the pathological condition was observed. The dose-limiting toxicity was determined in Cycle 1 (Days 1-21). Tumor sampling was performed after entry into the clinical study following the first dose. Note that a minus value in the maximum tumor change rate means that the tumor has been reduced by administration of antibody-drug conjugate (1).
Gene expression data of each patient were obtained by EdgeSeq after preparing a section from a formalin-fixed paraffin-embedded specimen of tumor tissue of each patient prior to antibody-drug conjugate (1) administration, and cutting out a tumor site by laser microdissection. The obtained count data were normalized by the Median normalization method, thereby the amount of expression of each gene was obtained. All the above tests were performed at HTG Molecular Diagnostics, Inc.
To the Median Normalized Count (MNC) value, after being obtained and normalized at HTG Molecular Diagnostics, Inc., 1 was added, and the sum was transformed to a logarithmic (log2) to obtain a log2[MNC+1] value (Table 15). The log2[MNC+1] value was used to analyze the relationship between the anti-tumor activity of antibody-drug conjugate (1) in each patient (Table 14) and the amount of expression of the hTROP2 gene and the SLFN11 gene. When all of the evaluated patients were grouped into groups having at least a certain amount of expression of the hTROP2 and SLFN11 genes (Table 16), it was shown that the proportion of patients showing at least a certain drug efficacy (maximum tumor change rate of 0% or less) is higher as the hTROP2 gene expression and the SLFN11 gene expression increases (Table 17). In the absence of grouping by SLFN11 gene expression, the proportion of patients showing the maximum tumor change rate of 0% or less was not more than 75 to 80%. […] For example, when the log2[MNC+1] value of the hTROP2 gene exceeds 12 and the log2[MNC+1] value of the SLFN11 gene exceeds 11.5, the proportion of patients in which the maximum tumor change rate is 0% or less is about 80% to 100%.

B1: antibody-drug conjugate (1): humanized anti-hTROP2 antibody (SEQ ID NO: 1 residues 20-470, SEQ ID NO: 2 residues 21-234) conjugated to the exatecan-derivative drug-linker via a thioether bond (conjugate, chains of the INN, looked up)
VH: QVQLVQSGAEVKKPGASVKVSCKASGYTFTTAGMQWVRQAPGQGLEWMGWINTHSGVPKYAEDFKGRVTISADTSTSTAYLQLSSLKSEDTAVYYCARSGFGSSYWYFDVWGQGTLVTVSS
VL: DIQMTQSPSSLSASVGDRVTITCKASQDVSTAVAWYQQKPGKAPKLLIYSASYRYTGVPSRFSGSGSGTDFTLTISSLQPEDFAVYYCQQHYITPLTFGQGTKLEIK
modifications: exatecan-derivative drug-linker
TGI (%) ([1]; PDX model #1, Breast, Day 14): 95.2%
TGI (%) ([1]; PDX model #2, Lung, Day 14): 68.3%
TGI (%) ([1]; PDX model #3, Cholangiocarcinoma, Day 14): 22.2%
TGI (%) ([1]; PDX model #4, Pancreatic, Day 14): 21.8%
TGI (%) ([1]; PDX model #5, Colorectal, Day 14): 41.7%
TGI (%) ([1]; PDX model #6, Breast, Day 14): 92.4%
TGI (%) ([1]; PDX model #7, Breast, Day 15): 87.6%
TGI (%) ([1]; PDX model #8, Head & neck, Day 14): 57.9%
TGI (%) ([1]; PDX model #9, Head & neck, Day 14): 94.0%
TGI (%) ([1]; PDX model #10, Lung, Day 14): 97.3%
TGI (%) ([1]; PDX model #11, Lung, Day 14): 87.4%
TGI (%) ([1]; PDX model #12, Breast, Day 15): 90.0%
TGI (%) ([1]; PDX model #13, Lung, Day 14): 62.3%
TGI (%) ([1]; PDX model #14, Breast, Day 14): 82.7%
TGI (%) ([1]; PDX model #15, Cholangiocarcinoma, Day 14): 46.4%
TGI (%) ([1]; PDX model #16, Colorectal, Day 14): 26.0%
TGI (%) ([1]; PDX model #17, Breast, Day 14): 56.5%
TGI (%) ([1]; PDX model #18, Lung, Day 14): 14.6%
TGI (%) ([1]; PDX model #19, Lung, Day 14): 28.1%
TGI (%) ([1]; PDX model #20, Lung, Day 14): 82.0%
TGI (%) ([1]; PDX model #21, Lung, Day 14): 76.6%
TGI (%) ([1]; PDX model #22, Lung, Day 14): 87.9%
TGI (%) ([1]; PDX model #23, Lung, Day 14): 4.7%
TGI (%) ([1]; PDX model #24, Lung, Day 14): 19.1%
TGI (%) ([1]; PDX model #25, Pancreatic, Day 14): 37.9%
TGI (%) ([1]; PDX model #26, Pancreatic, Day 13): 62.3%
TGI (%) ([1]; PDX model #27, Lung, Day 13): 48.5%
TGI (%) ([1]; PDX model #28, Breast, Day 14): 92.6%
TGI (%) ([1]; PDX model #29, Breast, Day 14): 97.4%
TGI (%) ([1]; PDX model #30, Lung, Day 10): 84.7%
TGI (%) ([1]; PDX model #31, Colorectal, Day 14): 58.4%
TGI (%) ([1]; PDX model #32, Lung, Day 13): 64.9%
TGI (%) ([1]; PDX model #33, Lung, Day 14): 25.0%
TGI (%) ([1]; PDX model #34, Lung, Day 13): 89.7%
TGI (%) ([1]; PDX model #35, Lung, Day 14): −0.4%
Proportion of PDX models showing TGI of 75% or more ([1]; log2[FPKM+1]: hTROP2 >4.0, SLFN11 >1, 21 models): 57%
Proportion of PDX models showing TGI of 75% or more ([1]; log2[FPKM+1]: hTROP2 >4.0, SLFN11 >2, 15 models): 60%
Proportion of PDX models showing TGI of 75% or more ([1]; log2[FPKM+1]: hTROP2 >4.0, SLFN11 >3, 9 models): 67%
Proportion of PDX models showing TGI of 75% or more ([1]; log2[FPKM+1]: hTROP2 >4.0, SLFN11 All models, 32 models): 44%
Proportion of PDX models showing TGI of 75% or more ([1]; log2[FPKM+1]: hTROP2 >5.0, SLFN11 >1, 18 models): 56%
Proportion of PDX models showing TGI of 75% or more ([1]; log2[FPKM+1]: hTROP2 >5.0, SLFN11 >2, 13 models): 62%
Proportion of PDX models showing TGI of 75% or more ([1]; log2[FPKM+1]: hTROP2 >5.0, SLFN11 >3, 7 models): 71%
Proportion of PDX models showing TGI of 75% or more ([1]; log2[FPKM+1]: hTROP2 >5.0, SLFN11 All models, 29 models): 41%
Proportion of PDX models showing TGI of 75% or more ([1]; log2[FPKM+1]: hTROP2 >6.0, SLFN11 >1, 17 models): 59%
Proportion of PDX models showing TGI of 75% or more ([1]; log2[FPKM+1]: hTROP2 >6.0, SLFN11 >2, 12 models): 67%
Proportion of PDX models showing TGI of 75% or more ([1]; log2[FPKM+1]: hTROP2 >6.0, SLFN11 >3, 6 models): 83%
Proportion of PDX models showing TGI of 75% or more ([1]; log2[FPKM+1]: hTROP2 >6.0, SLFN11 All models, 25 models): 48%
Proportion of PDX models showing TGI of 75% or more ([1]; log2[FPKM+1]: hTROP2 >7.0, SLFN11 >1, 11 models): 64%
Proportion of PDX models showing TGI of 75% or more ([1]; log2[FPKM+1]: hTROP2 >7.0, SLFN11 >2, 7 models): 86%
Proportion of PDX models showing TGI of 75% or more ([1]; log2[FPKM+1]: hTROP2 >7.0, SLFN11 >3, 4 models): 100%
Proportion of PDX models showing TGI of 75% or more ([1]; log2[FPKM+1]: hTROP2 >7.0, SLFN11 All models, 16 models): 50%
Proportion of PDX models showing TGI of 75% or more ([1]; log2[FPKM+1]: hTROP2 All models, SLFN11 >1, 24 models): 54%
Proportion of PDX models showing TGI of 75% or more ([1]; log2[FPKM+1]: hTROP2 All models, SLFN11 >2, 18 models): 56%
Proportion of PDX models showing TGI of 75% or more ([1]; log2[FPKM+1]: hTROP2 All models, SLFN11 >3, 12 models): 58%
Proportion of PDX models showing TGI of 75% or more ([1]; log2[FPKM+1]: hTROP2 All models, SLFN11 All models, 35 models): 43%
Proportion of animal models showing TGI of 75% or more ([1]; log2[FPKM+1]: hTROP2 exceeds 7.0 and SLFN11 exceeds 3.0): 100%
Maximum tumor change rate (%) ([2]; Patient #1, 2 mg/kg intravenously once every three weeks): −7.14%
Maximum tumor change rate (%) ([2]; Patient #2, 2 mg/kg intravenously once every three weeks): −68.52%
Maximum tumor change rate (%) ([2]; Patient #3, 2 mg/kg intravenously once every three weeks): −4.76%
Maximum tumor change rate (%) ([2]; Patient #4, 2 mg/kg intravenously once every three weeks): −11.70%
Maximum tumor change rate (%) ([2]; Patient #5, 2 mg/kg intravenously once every three weeks): 52.00%
Maximum tumor change rate (%) ([2]; Patient #6, 2 mg/kg intravenously once every three weeks): 3.15%
Maximum tumor change rate (%) ([2]; Patient #7, 4 mg/kg intravenously once every three weeks): 33.33%
Maximum tumor change rate (%) ([2]; Patient #8, 4 mg/kg intravenously once every three weeks): −53.13%
Maximum tumor change rate (%) ([2]; Patient #9, 6 mg/kg intravenously once every three weeks): −52.27%
Maximum tumor change rate (%) ([2]; Patient #10, 8 mg/kg intravenously once every three weeks): −3.47%
Maximum tumor change rate (%) ([2]; Patient #11, 8 mg/kg intravenously once every three weeks): −35.46%
Maximum tumor change rate (%) ([2]; Patient #12, 8 mg/kg intravenously once every three weeks): −63.64%
Proportion of patients showing a maximum tumor change rate of 0% or less ([2]; log2[MNC+1]: hTROP2 >12, SLFN11 >11.5, 8 patients): 88%
Proportion of patients showing a maximum tumor change rate of 0% or less ([2]; log2[MNC+1]: hTROP2 >12, SLFN11 >12.5, 4 patients): 100%
Proportion of patients showing a maximum tumor change rate of 0% or less ([2]; log2[MNC+1]: hTROP2 >12, SLFN11 All, 9 patients): 78%
Proportion of patients showing a maximum tumor change rate of 0% or less ([2]; log2[MNC+1]: hTROP2 >14, SLFN11 >11.5, 5 patients): 80%
Proportion of patients showing a maximum tumor change rate of 0% or less ([2]; log2[MNC+1]: hTROP2 >14, SLFN11 >12.5, 2 patients): 100%
Proportion of patients showing a maximum tumor change rate of 0% or less ([2]; log2[MNC+1]: hTROP2 >14, SLFN11 All, 5 patients): 80%
Proportion of patients showing a maximum tumor change rate of 0% or less ([2]; log2[MNC+1]: hTROP2 All, SLFN11 >11.5, 11 patients): 82%
Proportion of patients showing a maximum tumor change rate of 0% or less ([2]; log2[MNC+1]: hTROP2 All, SLFN11 >12.5, 5 patients): 100%
Proportion of patients showing a maximum tumor change rate of 0% or less ([2]; log2[MNC+1]: hTROP2 All, SLFN11 All, 12 patients): 75%
